Data as given in the nanobody polyreactivity screen of Harvey et al. (2022).

Experiment: yeast display, Sf9 membrane polyspecificity reagent, FACS + sequencing; frameworks hold sequencing errors
Summary of the method: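 Galactose-induced (36–48 hours) yeast carrying a synthetic nanobody display library were exposed to 10% biotinylated, detergent-solubilized Sf9 membrane reagent at 4 °C for 1 hour. FACS followed streptavidin microbead enrichment, using low and high (top ~1%) gates for expression (anti-HA) and reagent binding (streptavidin). Colony PCR, MiSeq 2 × 250 sequencing and CDR-length filtering followed. Labels for polyreactivity reflect the gate of origin.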

Row | Sequence | polyreactivity (PSR sort gate)
1 | QVQLQESGGGLVQAGGSLRLSSAASGNFFDADIIGRYRQAPGKERELVASITDGGSTNYADSVKGRFTISRDDTRNTVHLQMNSLYPEDTAVYYCAAIAYPDIPTYFDYDSDYSYWGQGTQVTVSS | high polyreactivity
2 | QVQLQESGGGLVQAGGSLRLSSAASGSIIQYGYMGWYRQAPGKEREFVAGIGGGTSNYADSVKGRFTMSRDNAKNTVYLQMNSLKPEDTAVYYCNTDAGDYYGENYWGQGTQVTVSS | low polyreactivity
3 | QVQLQESGGGLVQAGGSLRLSSAASGTISPLPAMGWYRHAPGKEREFVAGIDTGAIHNYADSVKGRFTIRRDNAKNTVYLQMNSLKPEDTAVYYCAVFPAAYEYYERYYTYWGQGTQVTVSS | low polyreactivity
4 | QVQLQESGGGLVQAGGSLRLTCAASGSISRLDYMGWYRQASGKERELVAAIDNGSTTYYADSVKGRLTISRDNAKYTVYLQMNSLKPEDTAVYFCAAVRGRGGTHAYWGQGTQVTVSG | low polyreactivity
5 | QVQLQESGGGLVQAGGSLRLTCAASGTITVLYKRGWFRQAPGKEREFVASINYGTSTYYADSVKGRFTVSRDSAINTVYLQMTSLKPEDTAVDYCAAAYRWQDVYRYWGQGTQVTVSS | low polyreactivity
6 | QVQLQESGGGLVQAGGSLRPSCEASGNISLNVYMCWYRQAPGKEREFVAGTADGATTNYADSVKGRFTISRDNAKNTVFLQMNSLKPEDTAVYDCIKDYGYVQLRFYGPGYYWGQGTQVTVSS | low polyreactivity
7 | QVQLQESGGGLVQAGGSLRQSCAASGSISATDSVGWYRQAPGKEREFVATIDGGANTNYADSVKGRFTISRDNAKNTVYLQMNSLKPEDTAVYYCAKDSQTARDFDYWGQGTQVTVSS | low polyreactivity
8 | QVQLQESGGGLVQAGGSLRQSYAASGYIFPSLAMGWYRQAPGKEREFVAAIGRGSTNNYADSVKGRFTISRDNAKNTAYQQMNSLKPEDTAVYYCAADASPLTRNLYWGQGTQVTVSS | low polyreactivity
9 | QVQLQESGGGLVQAGGSLRVSCAASGYISSWYPRGWYRQAPGKEREFVATISPGATTYYADSVKGRFTISRDYAKNTVYLQMNSLKPEDTAVYYCSAGQENNDFYSYWGQGTQVTVSS | low polyreactivity
10 | QVQLQESGGGLVQAGGSPRLSCAASDNIFPDSVMCWYRQAPGKERELVATIGFGATTNYADSVKGRFTISRDNAKNTVYLQMNSLKPEDTAVYYCAADPLNYEYFCYGGQGTQVTVSS | low polyreactivity
11 | QVQLQESGGGLVQAGGTITLGYEMGWYRQAPGKEREFVAGIDTGAITYYADSVKGRFTNSRDNAKNTVYLQMNSLKPEDTAVYYCAAIQTHTYAHSYWGQGTQVTVSS | high polyreactivity
12 | QVQLQESGGGLVQAGGTLRLSCAASGSFSADEDMGWYRQAQGKEREFVAGISVGGNTNYADSVKGPFTISRENAKNTVYLQINSLKPEDTAVYYCAVLQDVYDALDFWAQGTQVTVSS | high polyreactivity
13 | QVQLQESGGGLVQAGGTLRLSCAASGSFSADEDMGWYRQAQGKEREFVAGISVGGNTNYADSVKGRFTISRENAKNTVYLELNSLKPEDTAVYYCAVLQDVYDALDYWAQGTQVTVSS | high polyreactivity
14 | QVQLQESGGGLVQAGVSLRLSCAASGYISIEEDISWFCQAPGKERELVASITYGAITYYADSVKGRLTISSDNAKNTVYRQMNCLKPEDTAEYYCAVSYDYQQYYVSCGQGTQVTVSS | low polyreactivity
15 | QVQLQESGGGLVQASGSLRLSCAASGNIFPDYVMGWYRLAPGKEREFVANITGGSTTNYADSVKGRFTISRDNAKNTVYLQMNSLNPEDTAVYYCAVNFGTVVLYLYWGQGTQVTVSS | high polyreactivity
16 | QVQLQESGGGLVQASGSPRLSCAASGNIFDADIMGWYRQAPGKQCELVASITDGGSTNYADSEKGRFTISSDNAKNTVYLQMNSLKPEDTAVYYCAAIAYPDIPTYFDYDSDYFYWGQGTHVTVSS | high polyreactivity
17 | QVQLQESGGGLVQAVCSRRLSCAASGSFSSRDAMGWYRQAPGTEREFVATIAVGGNTNYADSAKGRFTISRDNAKITVYLQMNSPKPEDTAVYYRAAVIDFDIFTYWGQGTQVTVRS | high polyreactivity
18 | QVQLQESGGGLVQVGGSLRLSCAASGNIFIYGIMGWNRQAPGKERELVASINLGGITNYADSVKGRFTISRDNAKNTVYLQMISLKPEDTAVYYCAAYVVTGQNYGYWGQGTQVTVSS | low polyreactivity
19 | QVQLQESGGGLVQVGGSLRLSCPSSGTIFIYGFLGWNRQAPGKERELVASINLGGITNYADSVKGRCTISRDNAKNTVNLQMISLKPEDTAVYYCATYVVTGQNYGYWGQGTQVTVSR | low polyreactivity
20 | QVQLQESGGGLVQVGGSLRLTCAASGTIFIYGFLGWNRQAPGKERELVASINLGGITNYADSVKGRFTISRDNANNTVYLQMISLKPEDTAVYFCAAYFVTGQNYGSWGQGTQVTVSS | low polyreactivity
21 | QVQLQESGGGLVQVGGSQRLSCAASGNIFYNYAMGRYRHAQGKEHEFDATINHGTSINYADSVKGRFTISRDNAKNTVYLQMNSLKPEDTAVYYCAADLSWTDNLFYWGQGTQVTVSS | low polyreactivity
22 | QVQLQESGGGLVRAGGSLRLSCAASGYISTSIAMGWYRQAPGKERELVASFGGGAITNYADSVKGFTISRDNGKNTVYLQMNCLKPEDTAVYYFAVYHGDRGYYSYWGQGTQVTVSS | low polyreactivity

Row | Sequence | polyreactivity (PSR sort gate)
23 | QVQLQESGGGMVQAGGSLLSCAASGTISYYREMGWYRQAPGKERELVAGIGVGTITYYADSVKGRFTIIRDNAKNTVYLQMNSLKPEDTAVYYCAAHIDGNDYHAYWGQGTQVTVSS | low polyreactivity
24 | QVQLQESGGGPVQAGGSMRLSCAASGSISELRPMGWYREAPGKERELVAGISTGGSTNYADSVKGRFTISRDNAKKTVFLQMNSLKPEDTAVYYCAAASYGEGSYDYWGQGTQVTVRS | high polyreactivity
25 | QVQLQESGGGQVQAGGSLRLSSAASGYIFAYNYMGWYRKAPGKERELVAAIVHGSTTNYADSVKGRFTISRDNAKNTVYLHMNNLKPEDTAVYYCAVDAERYYLHSYWGQGTQVTVSS | high polyreactivity
26 | QVQLQESGGGQVQAVGSLRLSCAPSGSNFVSDTMCWYRHAPGKDRELVASIGRGSTTNHADSVKGRFTISRDNAKNIVYLLMNSLKPEDTAVYYCAALESYGKYHGYWGQGTQVTVSS | low polyreactivity
27 | QVQLQESGGLVQAGGLRLSCAASGSVSYQEAMGWYRQAPGKERELVATISFGANTNYADSVKGRFTISRDNAKNTVYLHMNSRKPEDTAVYYCAAESLFDDYYGYWGQGTQVTVSS | low polyreactivity
28 | QVQLQESGGRLVQADGSLRLSCAASGSIFGYYYMGWYRQAPGKDRELVATINICGITNYADSVKGRFTISRDNAKNTVYLQMNSLKPDDTAVYYCAADEYAQRDLGYWGQGTQVTVSS | low polyreactivity
29 | QVQLQESGGVLVQAGGSLRLSCAASGNILDADIMGWYRQAPGKERELVASITDGGSTNYADSVKGRFTISRDNAKNTVYLQMNSLKPEDTAVYYCAAIAYPDIPTYFDYDSEYFYWGQGTQVTVSS | low polyreactivity
30 | QVQLQESGGVQAGGSLRLSCAESGYISRSDVMGWYRQAPGKERELVATINNGTITYYADSVKGRFTISRDNAKNTVYLQMNSLKPEDTAVHYCAVVQSDTDSLYYWGQGTQVTVSS | low polyreactivity
31 | QVQLQESGGVQAGGSLRQSCAASGYISRSDVMGWYRQAPGKERELVATINNATITYYADSVKGRFTISRDNAKNTVYLQMNSLKPEDTAVHYFAVVQSDTDSLYYWGQGTQVTVSS | low polyreactivity
32 | QVQLQESGRRPGAAGGSPRMSCAASGNIFWVAVMGRYRQAPGKERELVASIGFGCTTYYADSVKCRFTISRDNAKNTVYLQMISLKPEDTAVYYCAAPLYDWGELDYWGQGTQVPVSS | low polyreactivity
33 | QVQLQESGSGLVQAGGSLRLSCAASGAIFPAYLMGWYRQAPGKERELVAGISYGSITYCADSVKGRFNISRDNEKNTVYLQMNSLKPEDTAVYYCAVWRPGGDEYYYWGQGTQVTVSS | low polyreactivity
34 | QVQLQESRGGLVQAVRSLRLSCAASGTILYSLGMGWYRQAPGKRREFVASITRGTTTNYAESVKGRFTISRDNAKKTVYPQMNSLKAEDTGVSFCAGPPFGVSSYDYWGQGNQVTVSS | low polyreactivity
35 | QVQLQESRGGPVLAGGSLRLSCAASGTIFVRLDMGWYRQAPGKEREFVATIGSGSSTYYADSVKGSFTISRDNVKNTVYLQMNSLKPEDTAVYYCAVSAAEQSRHYYWDQGTQVTVSS | low polyreactivity
36 | QVQLQESVGGLVLAGGSLRLICSASANISVYGTMGWYRKAPGKEREFVATIDPGTNTNYADSVKDRFTISRDNAKNTVYLQMNSLKPEDTAVYYCEVEGGSDWPYRYWGQGTQVTVSS | low polyreactivity
37 | QVQLQESVGGLVQAGGSLRLSCAASGSIFKVVDMGLYRQAPAKEREFVATIGEGGNTYYADSVKGRFTISRDNAKNTVYLQMNSLKPEDTAVYFYAVVLGTSYRYTYWGQGTLVTVSS | low polyreactivity
38 | QVQLQESVGGLVQAGGSLRLSCAASGTISPQPAMGWYRPAPGKEREFVAGIDTGAITNYADSVKGRFTISRDNAKNTVYLQMNSLKPEDTAVYYCAVFPAAYDYYERYYTYWGLGTQVTVSS | low polyreactivity
39 | QVQLQGSGGGLVQAAGSLRLSCAASGYIFQNVPMGWNRQAPGKERELVAGIDNGTSTNYADSVNGRFTISRDNAKKTVYLQMNSLKPEDTAVYYCAAAGQADDTLGYWGQGTQVTVSR | low polyreactivity
40 | QVQLQGSGGGLVQAGGSLRLSCAASGNIFDADIKGWYRQAPGKEIELVASITDGGSTNYADSVKGRFTISRDNAKNTVYLQMYSLKHEDTAVYYCAAIAYPDIPTYFDYDSDCFYWSQGTQVTVSS | high polyreactivity
41 | QVQLQGSGGGLVQAGGSLRMSCAASAYIFQNVPKGLNRKEPGKERELVAGIDNGTSTNYADSVNGRFTISRDNAKNSVYLEMKSLKPVDTAVYYCAAAGQADDTLGYWGQGTQVTVSS | low polyreactivity
42 | QVQLQGSGGGLVQAGGSLRQSCAASGYIFQNVPMGWNRQAPGKERELVAGIDNGTSTNYADSVNGRFTISRDNAKNTVYLQMNSLKPEDTAVYYCAAAGQADDTLGYWGQGTQVTVSS | low polyreactivity
43 | QVQLQVSGGDLLQAGGSLRLSCAASGTIYGHTSMGWYRQAPGKEREFVAAITDGGNTNYADSVKGRFTISRDNAINTVYLQMISLKPEDTAVYYCEVLFSDVAYYAYWGQGTQVTVSS | low polyreactivity
44 | QVQLQVSGGGLVQAGGSLRLNSAASGAIFLTSEMGWYRQAPGKERELVAAIATGTSTNYADSVKGLFTISRDNAKNTVYLQMNSLKPEDTAVYYCATYHYWGQGTQVTVSS | low polyreactivity
